Measurements taken from patent US6770458 (VANDERBILT UNIVERSITY, dated 2004).

Molecular target: T1, SNF1 fused to the GAL4 DNA-binding domain (pAS2) (UniProt P04386 1-147; P06782 1-633, limits assumed)
T1 construct: Unrelated control protein in the yeast two-hybrid system
Assay: yeast two-hybrid, β-galactosidase
Description: Cloning of STRAP. Northern blot and Southern blot analysis—Y190 containing pAS2-R4C was transformed with a pACT-mouse embryonic cDNA library, and transformants were subjected to selection for histidine prototrophy on SC-his, -trp, -leu plates containing 25 mM 3-aminotriazole (as described in Harper at al., *Cell* 75: 805–816 (1993) and Durfee et al., *Genes Dev.* 7:555–569 (1993)) and rare surviving colonies were then screened for β-galactosidase activity using a colony filter lift assay. Resulting clones, after second screening, were mated with Y187 containing the unrelated proteins p53, lamin, SNF1 and CDK2 fused to the GAL4 DNA-binding domain and tested for β-galactosidase activity. Positive clones were recovered from yeast and retransformed into Y190 with one of several unrelated molecules including lamin, SNF1, p53 or CDK2 in pAS2, for further testing of the specific interaction.
A color photograph was prepared showing STRAP or FKBP12.6 in pACT transformed into yeast strain Y190 containing R4C or one of several unrelated proteins including lamin. SNF1, p53 or CDK2 in pAS2. Transformants were tested for β-galactosidase activity by colony filter lift assay. A blue color indicated a positive interaction.

B1: STRAP (Serine-Threonine Kinase Receptors Associated Protein) in pACT (other)
chain: MAMRQTPLTCSGHTRPVVDLAFSGITPYGYFLISACKDGKPMLRQGDTGDWIGTFLGHKGAVWGATLNKDATKAATAAADFTAKVWDAVSGDELMTLAHKHIVKTVDFTQDSNYLLTGGQDKLLRIYDLNKPEAEPKEISGHTSGIKKALWCSDDKQILSADDKTVRLWDHATMTEVKSLNFNMSVSSMEYIPEGEILVITYGRSIAFHSAVSLEPIKSFEAPATINSASLHPEKEFLVAGGEDFKLYKYDYNSGEELESYKGHFGPIHCVRFSPDGELYASGSEDGTLRLWQTVVGKTYGLWKCVLPEEDSGELAKPKIGFPETAEEELAEEIASENSDSIYSSTPEVKA
notes: Yeast two-hybrid prey from a pACT mouse embryonic cDNA library (1.6 kb cDNA); also called STRAP clone; not shown: fusion partner encoded by the pACT library vector
  binding result: no binding
